Experimental data: article PMC2629585

Legend:
[1] = biological target: C-reactive protein (CRP), human, purified (Sigma) (human) (UniProt P02741); assay: SPR; BIAcore 2000; POPC on HPA chip, 200 nM CRP injected and captured, then L-rFBG injected at 30 ul/min; normal condition: 50 mM Tris, 145 mM NaCl, 2.5 mM calcium, pH 7.4
[2] = biological target: C-reactive protein (CRP), human, purified (Sigma) (human) (UniProt P02741); assay: SPR; BIAcore 2000; POPC on HPA chip, 200 nM CRP injected and captured, then L-rFBG injected at 30 ul/min; infection-inflammation condition: 50 mM MES, 145 mM NaCl, 2 mM calcium, pH 6.5

Sequence of C-reactive protein (CRP), human, purified (Sigma) (human) (P02741 19-224): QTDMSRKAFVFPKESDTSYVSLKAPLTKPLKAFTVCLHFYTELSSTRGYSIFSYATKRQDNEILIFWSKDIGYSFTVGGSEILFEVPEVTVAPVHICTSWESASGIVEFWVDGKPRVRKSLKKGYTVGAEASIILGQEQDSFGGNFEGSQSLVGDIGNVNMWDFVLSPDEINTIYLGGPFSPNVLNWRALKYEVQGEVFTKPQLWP

Substance: recombinant FBG domain of L-ficolin (L-rFBG) (domain or fragment)
- Kd [1]: 1110 nM
- Kd [2]: 12.6 nM
